Results: article PMC4627827, “SCARN a Novel Class of SCAR Protein That Is Required for Root-Hair Infection during Legume Nodulation”

How the values were obtained:
[1] = target: LjARPC3 (yeast two-hybrid fusion) (Lotus japonicus); test: two-hybrid; S. cerevisiae AH109; quantitative β-galactosidase (lacZ) activity under the control of the GAL4 promoter
[2] = target: NIN C-terminal half (RWP-RK domain) (Lotus japonicus, UniProt Q9S7B1 520-878); test: EMSA; 0.5 or 1 ug protein; unlabeled competitor 5x, 10x or 50x; EMSA with LightShift chemiluminescent kit (Thermo); buffer, salt, pH and temperature not stated; conditions: protein: recombinant; tags: C-terminal His; label: biotin; blunt
Sequence of NIN C-terminal half (RWP-RK domain) (Q9S7B1 entry or part of it): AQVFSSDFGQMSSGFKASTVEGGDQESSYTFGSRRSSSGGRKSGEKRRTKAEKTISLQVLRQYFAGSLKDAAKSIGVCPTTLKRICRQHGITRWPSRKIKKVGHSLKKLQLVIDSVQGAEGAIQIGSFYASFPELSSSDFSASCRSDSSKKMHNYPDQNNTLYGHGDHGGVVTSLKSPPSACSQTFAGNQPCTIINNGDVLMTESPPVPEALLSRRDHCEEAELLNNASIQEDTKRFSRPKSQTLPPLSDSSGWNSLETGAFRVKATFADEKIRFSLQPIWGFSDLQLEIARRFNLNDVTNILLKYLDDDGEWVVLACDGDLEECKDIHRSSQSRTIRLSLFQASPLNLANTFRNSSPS

Molecule: SCARN C-terminal WA domain (yeast two-hybrid fusion) (domain or fragment)
- β-galactosidase (LacZ) activity [1]: 18.1 units

B1: SCARN promoter S2 (dsDNA)
DNA 1: AAGAGGTGAAACTGAAGGAGTCAAGAGGATTGCAGAAGAA
DNA 2: TTCTTCTGCAATCCTCTTGACTCCTTCAGTTTCACCTCTT
- binding result [2]: binds

B2: SCARN promoter S3 (dsDNA)
DNA 1: AGTCAAGAGGATTGCAGAAGAAAGTAGGGTTTGTGAATCG
DNA 2: CGATTCACAAACCCTACTTTCTTCTGCAATCCTCTTGACT
- binding result [2]: binds

B3: SCARN promoter S1 (dsDNA)
DNA 1: GTAGTAGAGAGATAGAGTGAGTGAAAGGGTTTGAGGAATG
DNA 2: CATTCCTCAAACCCTTTCACTCACTCTATCTCTCTACTAC
- binding result [2]: binds
